Measured values taken from US20230399641A1 (SHANGHAITECH UNIVERSITY, published 2023).

Target: T1, receptor binding domain (RBD) of wildtype SARS-CoV-2 spike (residues 319-541) (SARS-CoV-2, UniProt P0DTC2 319-541)
T1 construct: range 319-541
Experiment: SPR, purified ACE2 protein on purified RBD of SARS-CoV-2 spike

B1: purified human ACE2 mutant Q24del (receptor)
chain: STIEEAKTFLDKFNHEAEDLFYQSSLASWNYNTNITEENVQNMNNAGDKWSAFLKEQSTLAQMYPLQEIQNLTVKLQLQALQQNGSSVLSEDKSKRLNTILNTMSTIYSTGKVCNPDNPQECLLLEPGLNEIMANSLDYNERLWAWESWRSEVGKQLRPLYEEYVVLKNEMARANHYEDYGDYWRGDYEVNGVDGYDYSRGQLIEDVEHTFEEIKPLYEHLHAYVRAKLMNAYPSYISPIGCLPAHLLGDMWGRFWTNLYSLTVPFGQKPNIDVTDAMVDQAWDAQRIFKEAEKFFVSVGLPNMTQGFWENSMLTDPGNVQKAVCHPTAWDLGKGDFRILMCTKVTMDDFLTAHHEMGHIQYDMAYAAQPFLLRNGANEGFHEAVGEIMSLSAATPKHLKSIGLLSPDFQEDNETEINFLLKQALTIVGTLPFTYMLEKWRWMVFKGEIPKDQWMKKWWEMKREIVGVVEPVPHDETYCDPASLFHVSNDYSFIRYYTRTLYQFQFQEALCQAAKHEGPLHKCDISNSTEAGQKLFNMLRLGKSEPWTLALENVVGAKNMNVRPLLNYFEPLFTWLKDQNKNSFVGWSTDWSPYAD
In the case of B1, the Kd is reported as 416 nM.
